{"source": "paper PMC7269643", "about": "(Science Advances, 2020)", "proteins": {"B1": {"name": "VapC22 toxin from Mycobacterium tuberculosis, expressed alone from a modified pBAD/Myc-His vector (enzyme)", "chain": "MTTVLLDSHVAYWWSAEPQRLSMAASQAIEHADELAVAAISWFELAWLAEQERIQLAIPVLSWLQQLAEHVRTVGITPSVAATAVALPSSFPGDPADRLIYATAIEHGWRLVTKDRRLRSHRHPRPVTVW"}}, "target": "the molecule itself", "test": "AUC"}
{"protein": "B1", "values": [{"measurement": "stoichiometry N", "result": 2}]}
